Starred links: 1 amine or outer side, 2 acyl side, 3 side chain; linkers in the order of their positions; H or OH if unused. Non-standard residues stand in square brackets, D forms with d. No end group written: not given here. *: point of attachment. ACPP = 2-amino-5-(3-chlorophenyl)pentanoic acid, O=C([C@H](CCCc1cccc(Cl)c1)N[*:1])[*:2]; Bip(2'-Et-4'-OMe) = CCc1cc(OC)ccc1-c1ccc(C[C@H](N)C(=O)O)cc1; 2F‑APPA = 2-amino-5-(2-fluorophenyl)pentanoic acid; αMePhe(2-F) = C[C@](N)(Cc1ccccc1F)C(=O)O; hhPhe = N[C@@H](CCCc1ccccc1)C(=O)O; aThr = C[C@H](O)[C@H](N)C(=O)O; CNB = not defined here; Aib = CC(C)(N)C(=O)O; Moc = COC(=O)*
How the values were obtained:
human glucagon receptor = human glucagon receptor (human, UniProt P47871 26-477); experiment: cell-based or functional assay
human GLP-1 receptor = human GLP-1 receptor (human, UniProt P43220 24-463); experiment: cell-based or functional assay
Chain of human GLP-1 receptor (P43220 24-463): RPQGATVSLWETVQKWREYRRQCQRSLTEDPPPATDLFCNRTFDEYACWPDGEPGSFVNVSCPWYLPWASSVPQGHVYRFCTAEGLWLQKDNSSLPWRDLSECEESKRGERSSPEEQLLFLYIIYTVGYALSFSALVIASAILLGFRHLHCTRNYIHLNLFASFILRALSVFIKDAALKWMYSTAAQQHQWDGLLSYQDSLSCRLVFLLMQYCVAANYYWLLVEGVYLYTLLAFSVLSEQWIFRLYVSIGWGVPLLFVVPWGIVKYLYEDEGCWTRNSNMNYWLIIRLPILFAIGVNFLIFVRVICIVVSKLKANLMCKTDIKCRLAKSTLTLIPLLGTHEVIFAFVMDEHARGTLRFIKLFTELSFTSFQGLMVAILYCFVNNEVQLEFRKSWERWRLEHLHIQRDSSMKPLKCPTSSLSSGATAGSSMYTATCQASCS

Row | Binder | inhibition of cAMP production, 1 nM (human glucagon receptor) [pmol/ml/µg prt] | inhibition of cAMP production, 10 nM (human glucagon receptor) [pmol/ml/µg prt] | inhibition of cAMP production, 100 nM (human glucagon receptor) [pmol/ml/µg prt] | inhibition of cAMP production, 1 µM (human glucagon receptor) [pmol/ml/µg prt] | inhibition of cAMP production, 10 µM (human glucagon receptor) [pmol/ml/µg prt] | cAMP release, % activity, 1 nM (human GLP-1 receptor) [%] | cAMP release, % activity, 10 nM (human GLP-1 receptor) [%] | cAMP release, % activity, 100 nM (human GLP-1 receptor) [%] | cAMP release, % activity, 1 µM (human GLP-1 receptor) [%] | cAMP release, % activity, 10 µM (human GLP-1 receptor) [%]
1 | H[Aib][CNB]G[aThr][αMePhe(2-F)][aThr]SD[Bip(2'-Et-4'-OMe)][hhPhe] (reading uncertain; also: thioamide bonds between residues 9-10 and 10-11) [Seq. ID. No. 178: H-Aib-(CNB)-G-T(allo)-(α-Me-2F-Phe)-T(allo)-SD-(C═S)-Bip(OMe)-(C═S)-(APPA)] | 0 | 0 | 0 | 0 | 0 | 39 | 80 | 86 | 95 | 98
2 | Ac-H[Aib][CNB]GT[αMePhe(2-F)]TSD[Bip(2'-Et-4'-OMe)][hhPhe] (reading uncertain) [Seq. ID. No. 205: CH3CO-H-Aib-(CNB)-GT-(α-Me-2F-Phe)-TSD-Bip(OMe)-(APPA)] | 4 | 2 | 0 | 0 | 0 | 96 | 99 | 99 | 99 | 99
3 | Moc-H[Aib][CNB]GT[αMePhe(2-F)]TSD[Bip(2'-Et-4'-OMe)][hhPhe] (reading uncertain) [Seq. ID. No. 206: CH3OCO-H-Aib-(CNB)-GT-(α-Me-2F-Phe)-TSD-Bip(OMe)-(APPA)] | 0 | 0 | 0 | 0 | 0 | 39 | 80 | 86 | 95 | 98
4 | H[Aib][CNB]G[aThr][αMePhe(2-F)][aThr]SD[Bip(2'-Et-4'-OMe)][hhPhe] (reading uncertain; also: reduced (CH2) bonds between 9-10 and 10-11) [Seq. ID. No. 202: H-Aib-(CNB)-G-T(allo)-(α-Me-2F-Phe)-T(allo)-SD-(CH2)-Bip(OMe)-(CH2)-(APPA)] | 9 | 6 | 5 | 3 | 0 | 99 | 99 | 99 | 99 | 99
5 | H[Aib][CNB]G[aThr][αMePhe(2-F)][aThr]SD[Bip(2'-Et-4'-OMe)][2F‑APPA] (reading uncertain; also: reduced (CH2) bonds Z9-Z10 and Z10-Z11) [Seq. ID. No. 204: H-Aib-(CNB)-G-T(allo)-(α-Me-2F-Phe)-T(allo)-SD-(CH2)-Bip(OMe)-(CH2)-(2F-APPA)] | 6 | 5 | 2 | 0 | 0 | 96 | 99 | 99 | 99 | 99
6 | H[Aib]QGTFTSD[Bip(2'-Et-4'-OMe)][ACPP] [Seq. ID. No. 19: H-Aib-QGTFTSD-Bip(OMe)-(ACPP)] | 0 | 0 | 0 | 0 | 0 | 99 | 99 | 99 | 99 | 99
7 | Moc-H[Aib]QG[aThr][αMePhe(2-F)][aThr]SD[Bip(2'-Et-4'-OMe)][2F‑APPA] (also: reduced (CH2) bonds between 9-10 and 10-11) [Seq. ID. No. 200: CH3OCO-H-Aib-QG-T(allo)-(α-Me-2F-Phe)-T(allo)-SD-(CH2)-Bip(OMe)-(CH2)-(2F-APPA)] | 10 | 8 | 6 | 4 | 1 | 55 | 88 | 92 | 99 | 99

Reference: US20120021972A1 (CADILA HEALTHCARE, published 2012)
